Source: article PMC3005623 (Journal of molecular biology, 2010)
Where two headings read alike, the source gives them in different places.

Tests used:
[1] = molecular target: the molecule itself; experiment: electron microscopy of lipid monolayers
[2] = molecular target: the molecule itself; experiment: electron microscopy of lipid monolayers; remark: listed apart in the source

Protein | binding result [1] | binding result [2]
Cdc12–(His)6-Cdc3–Cdc10–Cdc11(Δ306–415) complex (complex, S. cerevisiae) chain 1: MSAATATAAPVPPPVGISNLPNQRYKIVNEEGGTFTVMLCGESGLGKTTFINTLFQTVLKRADGQQHRQEPIRKTVEIDITRALLEEKHFELRVNVIDTPGFGDNVNNNKAWQPLVDFIDDQHDSYMRQEQQPYRTKKFDLRVHAVLYFIRPTGHGLKPIDIETMKRLSTRANLIPVIAKADTLTAQELQQFKSRIRQVIEAQEIRIFTPPLDADSKEDAKSGSNPDSAAVEHARQLIEAMPFAIVGSEKKFDNGQGTQVVARKYPWGLVEIENDSHCDFRKLRALLLRTYLLDLISTTQEMHYETYRRLRLEGHENTGEGNEDFTLPAIAPARKLSHNPRYKEEENALKKYFTDQVKAEEQRFRQWEQNIVNERIRLNGDLEEIQGKVKKLEEQVKSLQVKKSHLK chain 2: MSLKEEQVSIKQDPEQEERQHDQFNDVQIKQESQDHDGVDSQYTNGTQNDDSERFEAAESDVKVEPGLGMGITSSQSEKGQVLPDQPEIKFIRRQINGYVGFANLPKQWHRRSIKNGFSFNLLCVGPDGIGKTTLMKTLFNNDDIEANLVKDYEEELANDQEEEEGQGEGHENQSQEQRHKVKIKSYESVIEENGVKLNLNVIDTEGFGDFLNNDQKSWDPIIKEIDSRFDQYLDAENKINRHSINDKRIHACLYFIEPTGHYLKPLDLKFMQSVYEKCNLIPVIAKSDILTDEEILSFKKTIMNQLIQSNIELFKPPIYSNDDAENSHLSERLFSSLPYAVIGSNDIVENYSGNQVRGRSYPWGVIEVDNDNHSDFNLLKNLLIKQFMEELKERTSKILYENYRSSKLAKLGIKQDNSVFKEFDPISKQQEEKTLHEAKLAKLEIEMKTVFQQKVSEKEKKLQKSETELFARHKEMKEKLTKQLKALEDKKKQLELSINSASPNVNHSPVPTKKKGFLR chain 3: MDPLSSVQPASYVGFDTITNQIEHRLLKKGFQFNIMVVGQSGLGKSTLINTLFASHLIDSATGDDISALPVTKTTEMKISTHTLVEDRVRLNINVIDTPGFGDFIDNSKAWEPIVKYIKEQHSQYLRKELTAQRERFITDTRVHAILYFLQPNGKELSRLDVEALKRLTEIANVIPVIGKSDTLTLDERTEFRELIQNEFEKYNFKIYPYDSEELTDEELELNRSVRSIIPFAVVGSENEIEINGETFRGRKTRWSAINVEDINQCDFVYLREFLIRTHLQDLIETTSYIHYEGFRARQLIALKENANSRSSAHMSSNAIQR chain 4: MSGIIDASSALRKRKHLKRGITFTVMIVGQSGSGRSTFINTLCGQQVVDTSTTILLPTDTSTEIDLQLREETVELEDDEGVKIQLNIIDTPGFGDSLDNSPSFEIISDYIRHQYDEILLEESRVRRNPRFKDGRVHCCLYLINPTGHGLKEIDVEFIRQLGSLVNIIPVISKSDSLTRDELKLNKKLIMEDIDRWNLPIYNFPFDEDEISDEDYETNMYLRTLLPFAIIGSNEVYEMGGDVGTIRGRKYPWGILDVEDSSISDFVILRNALLISHLHDLKNYTHEILYERYRTEALSGESVAAES | binds | –
(His)6–Cdc12-Cdc10-Cdc3 complex (complex, S. cerevisiae) chain 1: MSAATATAAPVPPPVGISNLPNQRYKIVNEEGGTFTVMLCGESGLGKTTFINTLFQTVLKRADGQQHRQEPIRKTVEIDITRALLEEKHFELRVNVIDTPGFGDNVNNNKAWQPLVDFIDDQHDSYMRQEQQPYRTKKFDLRVHAVLYFIRPTGHGLKPIDIETMKRLSTRANLIPVIAKADTLTAQELQQFKSRIRQVIEAQEIRIFTPPLDADSKEDAKSGSNPDSAAVEHARQLIEAMPFAIVGSEKKFDNGQGTQVVARKYPWGLVEIENDSHCDFRKLRALLLRTYLLDLISTTQEMHYETYRRLRLEGHENTGEGNEDFTLPAIAPARKLSHNPRYKEEENALKKYFTDQVKAEEQRFRQWEQNIVNERIRLNGDLEEIQGKVKKLEEQVKSLQVKKSHLK chain 2: MDPLSSVQPASYVGFDTITNQIEHRLLKKGFQFNIMVVGQSGLGKSTLINTLFASHLIDSATGDDISALPVTKTTEMKISTHTLVEDRVRLNINVIDTPGFGDFIDNSKAWEPIVKYIKEQHSQYLRKELTAQRERFITDTRVHAILYFLQPNGKELSRLDVEALKRLTEIANVIPVIGKSDTLTLDERTEFRELIQNEFEKYNFKIYPYDSEELTDEELELNRSVRSIIPFAVVGSENEIEINGETFRGRKTRWSAINVEDINQCDFVYLREFLIRTHLQDLIETTSYIHYEGFRARQLIALKENANSRSSAHMSSNAIQR chain 3: MSLKEEQVSIKQDPEQEERQHDQFNDVQIKQESQDHDGVDSQYTNGTQNDDSERFEAAESDVKVEPGLGMGITSSQSEKGQVLPDQPEIKFIRRQINGYVGFANLPKQWHRRSIKNGFSFNLLCVGPDGIGKTTLMKTLFNNDDIEANLVKDYEEELANDQEEEEGQGEGHENQSQEQRHKVKIKSYESVIEENGVKLNLNVIDTEGFGDFLNNDQKSWDPIIKEIDSRFDQYLDAENKINRHSINDKRIHACLYFIEPTGHYLKPLDLKFMQSVYEKCNLIPVIAKSDILTDEEILSFKKTIMNQLIQSNIELFKPPIYSNDDAENSHLSERLFSSLPYAVIGSNDIVENYSGNQVRGRSYPWGVIEVDNDNHSDFNLLKNLLIKQFMEELKERTSKILYENYRSSKLAKLGIKQDNSVFKEFDPISKQQEEKTLHEAKLAKLEIEMKTVFQQKVSEKEKKLQKSETELFARHKEMKEKLTKQLKALEDKKKQLELSINSASPNVNHSPVPTKKKGFLR | – | binds
